This note sets out measurements from US12678457B2, “Blood-brain barrier-penetrating nanotheranostics for acute and chronic neurodegenerative diseases and the like” (THE GOVERNING COUNCIL OF THE UNIVERSITY OF TORONTO, priority 2020, dated 2026).

This data set can be described thus: Pharmacokinetic study of GDNF-TPN (human GDNF ELISA). The data set is classed as in vivo, healthy CD-1 mice. The note with it: after i.v. injection. As to the method:
Healthy CD-1 mice were randomly allocated into three treatment groups and received a single i. v. injection of GDNF-TPN, Free GDNF or saline at a matched dose of 15 mg GDNF/kg. At 0.5, 1, 2, 4, 6 and 24 hours after injection, whole blood was collected in heparinized tubes from ketamine anesthetized mice by cardiac puncture. Following perfusion with ice-cold saline via the left ventricle, the brains and organs were harvested, rinsed in PBS, weighted, snap-frozen and stored at −80° C. for further analysis. The mouse tissues were homogenized with RIPA buffer containing protease inhibitors and the GDNF was assayed using Human GDNF Elisa kit (Abcam, CA) under manufacture's protocol. […] Free GDNF was quickly eliminated from the blood within 2 hours after injection.
Background: ELISA stands for enzyme-linked immunosorbent assay.

B1: glial cell line-derived neurotrophic factor (protein, UniProt P39905 78-211, looked up)
Glial cell line-derived …: SPDKQMAVLPRRERNRQAAAANPENSRGKGRRGQRGKNRGCVLTAIHLNVTDLGLGYETKEELIFRYCSGSCDAAETTYDKILKNLSRNRRLVSDKVGQACCRPIAFDDDLSFLDDNLVYHILRKHSAKRCGCI
notes: Human GDNF, free protein solution used as comparator
Regarding B1, the “Time to elimination from the blood” value was no more than 2 h.
